Biological target: Leishmania major N5,N10-methylenetetrahydrofolate dehydrogenase/cyclohydrolase (Leishmania major (Friedlin strain))
Assay: SEC; Superdex 200 26/60 in buffer A (50 mM Tris-HCl, 250 mM NaCl, 20 mM imidazole, pH 7.5); main peak at approximately 65 kDa (subunit 31.9 kDa)

stoichiometry N: 2
Substance: Leishmania major N5,N10-methylenetetrahydrofolate dehydrogenase/cyclohydrolase (enzyme)
